{"source": "patent US20240398911A1", "assay_in_all_cases": "BLI, sACE22-IgG1 immobilized, RBD-8h analyte", "key": {"[1]": {"biological_target": "8his-tagged RBD of the S protein of bat coronavirus isolate LYRa11 (bat coronavirus LYRa11)"}, "[2]": {"biological_target": "8his-tagged RBD of the S protein of bat coronavirus isolate Rs4231 (bat coronavirus Rs4231)"}, "[3]": {"biological_target": "8his-tagged RBD of the S protein of bat coronavirus isolate Rs7327 (bat coronavirus Rs7327)"}, "[4]": {"biological_target": "8his-tagged RBD of the S protein of bat coronavirus isolate RsSHC014 (bat coronavirus RsSHC014)"}, "[5]": {"biological_target": "8his-tagged RBD of the S protein of bat coronavirus isolate Rs4084 (bat coronavirus Rs4084)"}}, "data": [{"substance": "sACE22.v2.4 fused to human IgG1 Fc (Fc fusion)", "values": [{"measurement": "Kd", "setting": "[1]", "value": 1.8, "unit": "nM"}, {"measurement": "koff", "setting": "[1]", "value": 0.0025, "unit": "s⁻¹"}, {"measurement": "kon", "setting": "[1]", "value": "1.4e+06", "unit": "M⁻¹ s⁻¹"}, {"measurement": "Kd", "setting": "[2]", "value": 3.5, "unit": "nM"}, {"measurement": "koff", "setting": "[2]", "value": 0.0016, "unit": "s⁻¹"}, {"measurement": "kon", "setting": "[2]", "value": 450000, "unit": "M⁻¹ s⁻¹"}, {"measurement": "Kd", "setting": "[3]", "value": 1.9, "unit": "nM"}, {"measurement": "koff", "setting": "[3]", "value": 0.0018, "unit": "s⁻¹"}, {"measurement": "kon", "setting": "[3]", "value": 980000, "unit": "M⁻¹ s⁻¹"}, {"measurement": "Kd", "setting": "[4]", "value": 1.3, "unit": "nM"}, {"measurement": "koff", "setting": "[4]", "value": 0.002, "unit": "s⁻¹"}, {"measurement": "kon", "setting": "[4]", "value": "1.6e+06", "unit": "M⁻¹ s⁻¹"}, {"measurement": "Kd", "setting": "[5]", "value": 3.1, "unit": "nM"}, {"measurement": "koff", "setting": "[5]", "value": 0.0015, "unit": "s⁻¹"}, {"measurement": "kon", "setting": "[5]", "value": 480000, "unit": "M⁻¹ s⁻¹"}]}]}
